# Results as given in the RNAGym collection of RNA variant scans (doi:10.1073/pnas.2313332121).
# Variants at the floor of the assay were thinned out.
# B1: TPR 5TU (parent)
# chain: GGAUCUUCUCGAUCUAACAAAAAAGACAAAUCUGCCACAAAGCUUGAGAGCAUCUUCGGAUGCAGAGGCGGCAGCCUUCGGUGGCGCGAUAGCGCCAACGUUCUCAACUAUGACACGCAAAACGCGUGCUCCGUUGAAUGGAGUUUAUCAUG
# Variants of: B1
# Assay: polymerase ribozyme fitness, log enrichment relative to wild type (log ratio); higher = more active; in vitro selection for triplet polymerase activity
# In short: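 Input and output libraries were sequenced on Illumina after a single in vitro selection round, run in triplicate on PCR-built, transcribed mutant libraries of each subunit of a heterodimeric triplet polymerase ribozyme. Selection annealed libraries to a biotinylated primer, the partner subunit and triplets, incubated them frozen at −7 °C, then gel-excised extended constructs for streptavidin-bead capture and RT-PCR. Genotypes with ≥10 input reads and ≥1 read per output were kept. Fitness is the logarithm, taken in base 2, of genotype enrichment divided by wild-type enrichment, using inverse-variance-weighted replicate averages.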
row,Variant,polymerase ribozyme fitness (log ratio)
1,GGAUCUUCUCGAUCUAACAAAAAAGACAAAUCUGCCACAAAGCUUGACAGCAUCUUCGGAUGCAGAGGCGGCAGCCUUCGGUGGCGCGAUAGCGCCAACGUGCUCAACUAUGACACGCAAAACGCGUGCUCCGUUGAAUGGAGUUUAUCAUG,-2.42
2,GGAUCUUCUCGAUCUAACAAAAAAGACAAAUCUGCCACAAAGCUUGAGAGCAUCUUCGGAUGCAGAGGCGGCAGCCUUCGGUGGCGCGAUAGCCCCAACGUUCUCAACUAUGACACGCAAAACGCGUGCUCCAUUGAAUGGAGUUUAUCAUG,-4.02
3,GGAUCUUCUCGAUCUAACAAAAUAGACAAAUCUGCCACAAAGCUUGAGAGCAUCAUCGGACGCAGAAGCGGCAGCCUUCGGUGGCGUGAUAGCGCCAACGUUCUCAACUAUGACACGCAAAACGCUUGCUCCGUUCAAUUGAGUUUAUCAUG,≤ -4.2
4,GGAUCUUCUCGAUCUAACAAAAAAGACAAAUCUGCCACAAAGCUUGAGAGCAUCUUCGGAUGCAGAGGCGGCAGACUUCGGUGGCACGAUAGCGCCGACGUUCUCAACUAUGACACGCAAAACGCGUGCUCCGUUUAAUGGAGUUUAUCAUG,≤ -4.2
5,GGAUCUUCUCGAUCUAACAAAAAAGACAAAUCUGCCACAAAGCUUGAGUGCAUCUUCGGAUGCAGAGGCGGCAGCCUUCGGUGGCGCGAUAGAGCCAACGUUCUCAACUAUGACACGCAAAACGCGUGCUCCGUUGAAUGGAGUUUAUCAUG,-3.3
6,GGAUCUUCUCGAUCUAACAAAAAAGACAAAUCUGCCACAAAGCUUGAGAGCAUCUUCGGAUGCAGAGGCGGUAGCCUUCGGUGGCGCGAUAGCGCCAACGUUCGCGACUAUGACACGCAAAACGCGUGCUCCGUUGAAUGGAGAUUAUCAUG,-4.01
7,GGAUCUUCUCGAUCUAACAAAAAAGACAAAUCUGCCACAAAGCUUGAGAGCAUCUUCGGAUGCAGAGGCGGCAGCCUUCGGUGGCGCGAUAGCGCCAUCGUUCUCAACUAUGACACGCAAAACGCGUGCUCCGUUUAAUGGAGUUUAUCAUG,-2.64
8,GGAUCUUCUCGAUCUAACAAUAAAGACAAAUCUGCCACAAAGCUUGAGAGCAUCUUCGGAUGCAGAGGCGGCAGCCUUCGGUCGCGCGAUAGCGUCAACGUUCUCAACUAUGACACGCAAAACGCGUGCUCCGUUGAAUGGAGUUUAUCAUG,-1.58
9,GGAUCUUCUCGAUCGAACAAAAAAGACAAAUCUGCCAUAAAGCUUGAGAGCAUCAAGGGAUGCAGAGGCGGCAGCCUUCGGUGGUGCGAUAGCGCCAACGUUCUCAACUAUGACACGCAAAACGCGUGCUCCGUUGAAUGGAGUUUCUCAUG,-2.05
10,GGAUCUUCUCGGUCUAACAAAAAAGACAAAUCUGCCACAAAGCUUGAGAGCAUCUUCGGAUGCAGAGGCGGCAGCCUUCGGUGGCGCGAUAGGGCCAGCGUUCUCAACUAUGACACGCAAAACGCGUGCUCCGUUGAAUGCAGUUUAUCAUG,-2.52
11,GGAUCUUCUCGAUCUAACAAAAAAGACAAAGCUGCCACAAAGCUUGAGAGCAUCUUCGGAUGCAGAGGCGGCAGCCUUCGGUAGCGCGAUAGCGCCAACGUUCUCAACUAUGACACGCAAAACGCGUGCUCCGUUGAGUGGAGUUUAUCAUG,≤ -4.2
12,GGAUCUUCUCGAUCUAACAAAAAAGACAAAUCUGCCUCAAAGCUUGAGAGCAUCUUCGGAUGCAGAGGCGGCAGCCUUCGGUGGCGCGAUAGCGCCAACGUUCUCAACUAUGAUGCGCAUAACGCGUGCUCCGUUGAAUGGAGUUUAUCAUG,-3.83
13,GGCUCUUCUCGAUCUAACAAAUAAGACAAAUCUGCCGCAAAGCUUGAGAGCAUGUUUGGAUGCAGAGGCGGCAGCCUUCGGUGGUGCCAUAGCGCCAACGUUCUCAACUAUGACACCCAAAACGCGUGUUCCGUUGAAUGGAGUUUAUCAUG,≤ -4.2
14,GGAUCUUCUCGAUCUAACAAAAAAGACAAAUCUGCCACAAAGCUUGAGAGUAUCUUCGGAUGCAGAGGCGGCAGCCUUCGGUGGCGCGAUAGCGCCAACGUUCUCAACUAUGACUCGCAAAACGCGUGCUCCGUUGAAUGGAGUUUAUCAUG,-2.12
15,GGAUCUUCUCGAUCUAACAAAAAAGACAAAACUGCCACAAAGCUUGAGAGCAUCUUCGGAUGCAGAGGCGGCAGCCUUCGGUGGCGCGAUAGAGCCAACGUUCUCAACUAUGACACGCAAAACGCGCGCUCCGUUGAAUGGAGUUUAUCAUG,-3.92
16,GGAUCUUCUCGAUCUAACAAAAAAGACAAAUCUGCCACAAAGCUUGAGAGCAUCUUCGGAUGCAGAGGCGGCCGCCUUCGGUGGAGCGAUAGCGCCAACGUUCUCAACUCUGACACGCUAAACGCGUGCUCCGUUUAAUGGAGUUUAUCAUG,≤ -4.2
17,GGAACUUCUCAAUCUAACAAAAAAGACUAAUCUGCCACAAAGCUUGAGAGCAUCUUCGGAUGCAAAGGCGGUAGCCUUCUGUGCCGCGAUCGCGCCCACGUUCUCCACUAUGACACGUAAAACGCGUGCUCCGUUGAAUGUAGUUUAUCAUG,≤ -4.2
18,GGAUCUUCUGGGUCUAACAAAAAAGAGAAAUCUGCCACAAAGCUUGAGGGCAUCUUCGGAUCCAGAAUCGGCAGCCUUCGGUGGCGCGAUAGUGCCAACGUUCUCAACUAUGACACGCAAAACGCGUGCUCCGUUGAAUGGAGUUUAUCAUG,≤ -4.2
19,GGAUCUUCUCGAUCUAACAAAAAAGACAAAGCUGCCACAAAGCUUGAGAUCAUCUGCGGAUGCAGAGGCGGCAGCCUUCGGUGGCGCGAUAGCGCCAACGUUCUCAACUAUGACACGCAAAACGCGUGCUCCGUUGAAUGGAGUUUAUCAUG,-1.97
